Experimental data taken from article PMC6625852.
Blank lines part the entries; values can stand above or below the molecule they belong to.

Tests used:
[1] = molecular target: human factor VII N360Q mutant, C-terminal V5 tag (human); assay: co-IP
[2] = molecular target: human factor VII wild-type, C-terminal V5 tag (human); assay: co-IP

level co-precipitated, percent of that with WT FVII [1]: 230%
Molecule: binding immunoglobulin protein (BiP) (from UniProt P11021 19-654) (natural protein)

level co-precipitated, percent of that with WT FVII [1]: 124%
level co-precipitated in DNJ-treated cells, percent of WT in untreated cells [2]: 129%
B1: calnexin (natural protein)
chain: HDGHDDDVIDIEDDLDDVIEEVEDSKPDTTAPPSSPKVTYKAPVPTGEVYFADSFDRGTLSGWILSKAKKDDTDDEIAKYDGKWEVEEMKESKLPGDKGLVLMSRAKHHAISAKLNKPFLFDTKPLIVQYEVNFQNGIECGGAYVKLLSKTPELNLDQFHDKTPYTIMFGPDKCGEDYKLHFIFRHKNPKTGIYEEKHAKRPDADLKTYFTDKKTHLYTLILNPDNSFEILVDQSVVNSGNLLNDMTPPVNPSREIEDPEDRKPEDWDERPKIPDPEAVKPDDWDEDAPAKIPDEEATKPEGWLDDEPEYVPDPDAEKPEDWDEDMDGEWEAPQIANPRCESAPGCGVWQRPVIDNPNYKGKWKPPMIDNPSYQGIWKPRKIPNPDFFEDLEPFRMTPFSAIGLELWSMTSDIFFDNFIICADRRIVDDWANDGWGLKKAADGAAEPGVVGQMIEAAEERPWLWVVYILTVALPVFLVILFCCSGKKQTSGMEYKKTDAPQPDVKEEEEEKEEEKDKGDEEEEGEEKLEEKQKSDAEEDGGTVSQEEEDRKPKAEEDEILNRSPRNRKPRRE
